The record followed here is the supplement of paper PMC10567573.

This series in a line: protein stability index of a GFP-peptide fusion (GPS, HEK-293T) (PSI 1-6); higher = more stable.
Where [1] appears, read: treatment: DMSO, c terminus: a fixed tail appended.
Where [2] appears, read: treatment: MLN4924 1 uM, 8 h, c terminus: a fixed tail appended.
Setting [3] is: treatment: MLN4924 1 uM, 8 h, c terminus: native.

± gives the standard deviation.
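Note: 24-mer peptide tiles fused after GFP, lentivirally expressed, FACS-sorted into six equal bins by GFP/DsRed ratio, decoded by Illumina sequencing, PSI is the read-weighted mean bin number.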

With AAFEEFDTDRDGYISHRELGDCMR [CABP4], the protein stability index under setting [1] worked out at 4.25 ± 0.17 and the protein stability index under setting [2] is 4.3 ± 0.36.

As to AALCALGKDCFLELAPDFVGDILW [ETS1], the protein stability index stood at 2.51 ± 0.41 under setting [1] and 2.95 ± 0.77 under setting [2].

As for AAQEGEDEGASAGQGPKPEADSQE [GAGE1], the protein stability index by setting is: under setting [1], 5.67 ± 0.17; under setting [2], 5.64 ± 0.24. AASPQDLAGGYTSSLACHRALQDA [MNAT1] had a protein stability index under setting [1] of 4.21 ± 0.25 and a protein stability index under setting [2] of 4.24 ± 0.37.

For the sequence AASSYSFSDLNSTRGDADMYDLPK [EMD], the protein stability index is, setting by setting: under setting [1], 4.43 ± 0.23; under setting [2], 4.53 ± 0.26.

ACLLQLAEIQEACCEFLKRQLDPS [KLHL20]: the protein stability index is, setting by setting: under setting [1], 2.32 ± 0.58; under setting [2], 2.16 ± 0.053.

ADEQLHCAGKAKRSGGHAPRVREL [ESR2] registered a protein stability index under setting [1] of 4.45 ± 0.26 and a protein stability index under setting [2] of 4.39 ± 0.3. On the same counts, the results for AECALNERGVEGDFLIRDSESSPS [NCK2] are 5.42 ± 0.33 and 5.48 ± 0.2. In the same order, the values of AEQLRIELNAEKFKNSLLQKELKK [WEE1] are 3.88 ± 0.28 and 3.94 ± 0.42.

Take AESLKGKLEEERAKLHDVELHQVA [GNB5]: the protein stability index under setting [1] came out at 5.02 ± 0.33 and the protein stability index under setting [2] stood at 5.23 ± 0.29. On the same counts, the results for AFPFNMQELVLKVRIQNPSLREND [ANKRD40] are 2.41 ± 0.46 and 2.33 ± 0.41.

As for AFQNDVYEWARDHRAHHKFSETHA [SCD], the protein stability index was determined as 2.65 ± 0.22 under setting [1] and 2.69 ± 0.33 under setting [2]. Consider AFSNRSKQLRRQMWWRGCKIKAIM [VAMP4], for which the protein stability index by setting is: under setting [1], 2.35 ± 0.082; under setting [2], 2.44 ± 0.27.

As to AGEGRLGHKRKQPLPKRVAKVPRP [FOXJ1], the protein stability index by setting is: under setting [1], 4.53 ± 0.45; under setting [2], 4.36 ± 0.43. In the same order, the values of AGGEKGPQAFPMSRLWDSRLRHYL [DNAAF3] are 2.12 ± 0.077 and 2.54 ± 0.065. On the same counts, the results for AGRLMRPSVKYLSHPRVQSGCDKE [RNF180] are 4.06 ± 0.21 and 4.11 ± 0.21.

With AGRWLWGAQPCLLLPIVPLSWLVW [ADAMTS4], the protein stability index by setting is: under setting [1], 2.98 ± 1.5; under setting [2], 3.24 ± 2.6.

Regarding AGSSTWERYFIPVSCFLTFNIFDW [SLC29A1], the protein stability index turned out to be 3.09 ± 0.2 under setting [1] and 3.05 ± 0.58 under setting [2]. Turning to AHHRSGAQVFPESPESESDHEHEE [GNAS], the protein stability index is, setting by setting: under setting [1], 5.63 ± 0.24; under setting [2], 5.54 ± 0.26. AIFSAPAFPAAVSSMKKFCRPLLP [PSD2]: the protein stability index is, setting by setting: under setting [1], 2.58 ± 0.12; under setting [2], 2.3 ± 0.28.

For the sequence AILYYYQSGGRLRRPVNVPLDMFS [KCNA1], the protein stability index reads like this: under setting [1], 2.69 ± 0.84; under setting [2], 2.29 ± 0.42. On to AISVVGVSAGGHTLSRPPPAQVPR [TFE3], for which the protein stability index reads like this: under setting [1], 3.38 ± 0.24; under setting [2], 3.35 ± 0.24. On to AKKFRKAVTDLLGRRQRKSEKRRD [WASL], for which the protein stability index reads like this: under setting [1], 3.88 ± 0.52; under setting [2], 3.89 ± 0.2. For ALAGYTGSGPIQLWQFLLELLTDK [ETS1], the protein stability index by setting is: under setting [1], 2.35 ± 0.13; under setting [2], 2.48 ± 0.31. For ALARDLLSETADPFFVLNSDVICD [GMPPB], the protein stability index reads like this: under setting [1], 3.07 ± 0.069; under setting [2], 3.32 ± 0.26. Consider ALFFKNIMNIIDIVSILPYFITLG [KCNA4], for which the protein stability index under setting [1] was found to be 2.86 ± 0.21 and the protein stability index under setting [2] is 3.43 ± 0.4. ALIDRPAPYFERSSSKRYTMSRSL [EPB41L3]: the protein stability index runs as follows: under setting [1], 2.8 ± 0.31; under setting [2], 3.12 ± 0.58. Take ALKHYVESASSQSGCLRISIQKLS [NECAB1]: the protein stability index came out at 2.05 ± 0.12 under setting [1] and 2.18 ± 0.28 under setting [2]. In the case of APAFRLSLKAKVSDNMSHLMVDFA [FSD1], the protein stability index by setting is: under setting [1], 2.28 ± 0.1; under setting [2], 2.25 ± 0.12.

As for APAPAPASSGQHHDFLSDLFSDDY [CEBPB], the protein stability index is, setting by setting: under setting [1], 5.13 ± 0.29; under setting [2], 5.14 ± 0.16. In the same order, the values of APGIGPPEPWPGGCTGDEAESRGH [MYCL] are 4.97 ± 0.55 and 5.51 ± 0.23. As to APGSASSSKVSGVLKKLAQSRRTA [YJU2B], the protein stability index was 3.81 ± 0.3 under setting [1] and 3.87 ± 0.34 under setting [2]. As to APRLLKREPDWGDGDAPGSLLPAQ [CEBPD], the protein stability index reads like this: under setting [1], 4.87 ± 0.43; under setting [2], 5.03 ± 0.37.

Take AQIDQYVGLVTNQLSHIKAKIRAK [RTN2]: the protein stability index reads like this: under setting [1], 2.7 ± 0.3; under setting [2], 2.75 ± 0.28.

With AQKESLQNQHHSASLQASIFSGAA [APBB1IP], the protein stability index by setting is: under setting [1], 4.03 ± 0.22; under setting [2], 3.98 ± 0.26. With AQNACSEHGATLAVIDSEKDMNFL [CD69], the protein stability index stood at 4.62 ± 0.29 under setting [1] and 4.78 ± 0.27 under setting [2]. In the same order, the values of AQRHRGSAKDGGPQPPDAPQLVSS [PLEKHN1] are 5.04 ± 0.51 and 5.22 ± 0.28. ARSESVLLHMPQPVNPELTAGPIT [TRIM43] gave a protein stability index under setting [1] of 4.31 ± 0.061 and a protein stability index under setting [2] of 4.41 ± 0.078. On the same counts, the results for ASHSLSPSEHVQGKSPVNMVTVAM [ZNF649] are 3.3 ± 0.29 and 3.21 ± 0.35. In the same order, the values of ASMAPAAALPPVPSPPAAPSVADN [SERTAD1] are 5.3 ± 0.13 and 5.31 ± 0.42. For the sequence ASSASEPQGLFVEALSVPLSLCVS [CLPTM1], the protein stability index runs as follows: under setting [1], 2.31 ± 0.2; under setting [2], 2.25 ± 0.36. Regarding ASSPGNPTALANGTVQAPKQKGD [LPCAT4], the protein stability index reads like this: (treatment: DMSO, c terminus: native) 5.31 ± 0.21; under setting [3], 5.22 ± 0.35. ASSPYISSVQSYPGSASLAQSRLE [DLX1] showed a protein stability index under setting [1] of 3.92 ± 0.18 and a protein stability index under setting [2] of 4.13 ± 0.14.

For the sequence ATPGGGTGEAARPHKGLNLHPLLS [PCDHGC5], the protein stability index by setting is: under setting [1], 3.74 ± 0.17; under setting [2], 3.83 ± 0.21.

In turn, ATYIFIFIGETLLSMNWAIVADIL [SPNS1] gave a protein stability index under setting [1] of 3.13 ± 0.39 and a protein stability index under setting [2] of 2.68 ± 0.74. Regarding AVEDGLQQFKQYSRHVTTRAALTY [M1AP], the protein stability index reads like this: under setting [1], 3.14 ± 0.42; under setting [2], 3.1 ± 0.23. Consider AVSCVFLAFVIVLLAHRLRRWHKS [PCDHGA10], for which the protein stability index is 2.33 ± 0.36 under setting [1] and 1.92 ± 0.23 under setting [2].

Consider AVTLRCGHNFCRGCVSRCWEVQVS [TRIM35], for which the protein stability index reads like this: under setting [1], 2.62 ± 0.12; under setting [2], 2.33 ± 0.43. On the same counts, the results for AVTPAGVVNKYQINGLQAWLLTHL [DHCR7] are 2.19 ± 0.23 and 2.15 ± 0.16.

As for AVVSQMDQEQGSSFQMSEGSEAAV [FAM189A2], the protein stability index came out at 5.46 ± 0.29 under setting [1] and 5.44 ± 0.17 under setting [2]. For AWKHGNIHLSAPCIYSEVMEALKL [PCMTD1], the protein stability index is, setting by setting: under setting [1], 2.28 ± 0.34; under setting [2], 2.14 ± 0.33. In the same order, the values of AWVANFERPRMNANSLLASPTGLS [CRY1] are 2.64 ± 0.5 and 2.97 ± 0.37. As for CAIASGSELSESAFGYFITACAVI [SLC29A1], the protein stability index under setting [1] was determined as 3.37 ± 0.67 and the protein stability index under setting [2] was 3.12 ± 0.34.

With CAIQASLNQGSVFQEYDTDCEVFR [ZNF449], the protein stability index by setting is: under setting [1], 2.79 ± 0.82; under setting [2], 2.67 ± 0.48. Sequence CAVLDDSIYLVGGYSWSMGAYKSS [KLHL14] yielded a protein stability index under setting [1] of 2.52 ± 0.64 and a protein stability index under setting [2] of 2.17 ± 0.64.

On to CDECGKIFSQSSALILHQRIHSGK [ZNF396], for which the protein stability index by setting is: under setting [1], 5.51 ± 0.39; under setting [2], 5.51 ± 0.11. As to CHECGKKFSQNSHLIKHRRTHTGE [ZNF75A], the protein stability index worked out at 5.19 ± 0.29 under setting [1] and 4.72 ± 0.25 under setting [2]. In the same order, the values of CKVFGIHKACEVAPLQSVFQGQKT [TRIM63] are 2.81 ± 0.26 and 2.96 ± 0.39. In the case of CLHMFLQDEIIDKSYTPSKIRHA [SNX3], the protein stability index under setting [3] was found to be 2.77 ± 0.46. As for CLVFELLSYNLYDLLRNTHFRGVS [DYRK1B], the protein stability index runs as follows: under setting [1], 2.95 ± 0.3; under setting [2], 3.3 ± 0.16.

In the case of CRDGEVLLRLSKHGPGHETPMTIP [ACSBG2], the protein stability index was 2.62 ± 0.4 under setting [1] and 2.66 ± 0.63 under setting [2].

As for CREQLDIMNDLSNRVWSISQEPDP [TRIM14], the protein stability index was 3.43 ± 0.28 under setting [1] and 3.43 ± 0.21 under setting [2]. For CRFNQDPEAVDEDRSTEPDRLQVF [ATE1], the protein stability index came to 4.54 ± 0.18 under setting [1] and 4.55 ± 0.2 under setting [2].

As to CRKCIASSGCFMEYLENQVIKDKD [RNF180], the protein stability index was found to be 2.42 ± 0.26 under setting [1] and 2.5 ± 0.41 under setting [2]. In the same order, the values of CRLINEDVNEQVMQVLGPEDLQSI [CEP70] are 3.65 ± 0.32 and 3.54 ± 0.28. On to CSNLTPNVPNVCRMYCSDLLNPNL [SPACA3], for which the protein stability index came out at 2.62 ± 0.55 under setting [1] and 2.42 ± 0.45 under setting [2]. On the same counts, the results for CSVFPATDAPEQFISQVTVLKYFS [PLK2] are 2.49 ± 0.55 and 2.56 ± 0.5. For the sequence CTQLGSLSALKHAVLGLYLLVFLI [SCARA5], the protein stability index by setting is: under setting [1], 2.16 ± 0.24; under setting [2], 2.05 ± 0.23. Regarding CVKNELLPSHPLELSEKNFQLNQD [POMP], the protein stability index is, setting by setting: under setting [1], 4.42 ± 0.1; under setting [2], 4.57 ± 0.14. Consider CVLVPRADLRLGGQPAPPQLLLGR [SMAD6], for which the protein stability index by setting is: under setting [1], 2.5 ± 0.5; under setting [2], 2.65 ± 0.099.

For CVSRNSHLTSVTSESEQEFLYKTA [CD207], the protein stability index reads like this: under setting [1], 3.34 ± 0.51; under setting [2], 3.81 ± 0.17. On the same counts, the results for DAQLLPHHSLQAHFRPRFHPLPTV [TMEM192] are 3.22 ± 0.18 and 3.22 ± 0.16.
